The text below walks through data of a protein production outcome set (Wang et al. 2014).

The nature of the data set: label from the status in PepcDB records.
As to “MSRPDQAARRRAIAAELHVSPTFDARDEAERRIGFVADYLRTAGLRACVLGISGGIDSSTAGRLAQLAVERLRASGYDARFVAMRLPYGAQHDEADARRALAFVRADETLTVDVKPAADAMLAALAAGGLAYLDHAQQDFVLGNIKARERMIAQYAVAGARNGVVIGTDHAAESVMGFFTKFGDGGADVLPLAGLTKRRVRALARMLGADEPLVLKTPTADLETLRPQRPDEHAYGITYEQIDDFLEGKPMDDAVAETVLRFYDATRHKRALPYTMFDWPGHPA”, the protein production entry was “not failed”.
For “MNKRPASGTGHSVLRRSTRRQLLGAAAGATAALCGCLDDNGTDRTEPLDVSIGDVATYRYGPQRRGVADTTVPETAPDERWRLNTDWPVRAAPAVVGGVVYHCGNGLAAVDAVDGERLWRVDTDGPSETPPAVADGVVFAGTHRGRLHAINSDGTEHWTASGNGRIDAAPVVVDGRVYTASRATDGEVYAFEAGGREWTHEAVYRVNSPPAVADGLVFVGGWEGAVYGIDADSGERQWRTATDGPVLSSPAVADGRVFAGGNDGVVRALDVADGDERWQVETAATPTAPAVADGSLYVGDADGRLRRLDAATGEEGWQVTVASGIGVPPTVVEGTVVVGTTDGGVVAVDAADGTERWRVDTGERIRSQPVLAAGRVFVGSGRRLLALGK”, the protein production entry is listed as “failed”.
With “MIAMDIREIGLRLVGEAIKAADPYRAVLNAVKVSDDKIIVQGKEFEIKGKVYVIALGKAACEMARAIEDILDVEDGVAVTKYGYGKELKRIKVIEAGHPIPDEKSILGAKEALSILNRARENDIVFILISGGGSALFELPEEGISLEDLKLTTDLLLKSGAKIHEINTVRKHISKVKGGKLAKMIKGTGIVLIISDVVGDNLEAIASGPTVKDPTTFEDAKRILELYDIWEKVPESVRLHIERGLRGEVEETLKEDLPNVHNFLIASNSISCEAIAREAQRLGFKAYIMTTTLEGEAKDAGLFIGSIVQEIAERGRPFEPPVVLVFGGETTVTIEGKGGKGGPNQEIALSATRKISDLEALIVAFDTDGTDGPTDAAGGIVDGTTYKKLREKGIDVEKVLKEHNSYEALKKVGGLLFTGPTGTNVNSIVIAIVTSKRGRT”, the protein production result is “not failed”.
As for “MDKKKHSLKAPVMTHRAFLALAIPLIFSAMTTPLIGAVDTAIVGHLQDPALIGGVAVGALIFNTMYWLFGFLRVSTSGFSAQALGRKKEDDIMLAFVRPFLLAMFVGLSFILLQHPIKSASLLIISPPEHVGLFAEQYVAIRIWGAPFALISYVVIGWLMGIGRIRGAVTIQIGTNLLNVALDFLFVYWMQWGIGGVAAASLIAEVTGAVAGCLFVLRCYSFSVFSSLTQVLDKRPILHMLTVNRDLFIRTICLLTVLTTFTSIGARFGEVSLAANAILLQLHYLMAYMFDGVANAASIVVGRSVGARDRSLFERVVRLDIVWSSVICLWLVCTLGLMKEPIIALFTSIPAVQAETLQLFGWIMLFPIAGFWGLQLHGMFSGATVARPIRQSMIIAMLVFLISCWLFVPLWGNNGLWLSFIVFTIARSMTLHLSYPALQRLFHDKERSIGA”, the protein production result is “failed”.
Take “MLDLVSSKTTPVFSLVAFAVIHSLTASLPFKRMVMKAAGPRAEKLYLPAYSLVAVLTVLPLAYQLYKNPGRILYKIPSPWRWLMVGGQVIAGILAPMAFWNAPHRFKIRSQLSGPQASEEGSLKIKGIYRWVRDPFLLSGLVVMLLTPFMTVNLLIVYLLTTVYLFLGSLHWETRLVAQFGDEYREYQKKVHRIIPELKGSVKNPGDKASE”: the protein production result is recorded as “failed”.
Turning to “METEYDQVLRSVAQVNIADQIGESDDVERDGNGVKVSCFTEVFDDVTIQFQIIRLAKQIYVWVGCNSAKFGSLYAAASTRPSNTVSVTSVLGGTSDNTGSGIARRLVLKTGLNIILACNIPKNNPLLEAKAEKVLIRKLIDLGYTMSKPVRAT”, the protein production result was “failed”.
With “MKTLVHLSDLHFGKTESQLVDAIAAEVRAVDSDLLVVSGDLTQRARKDEFLQARAFLDSLPGPRIVVPGNHDVPLWNVFARAMTPLSRYRRYIEADTDPFYADSEVAVVGINTARSLTIKDGRINVRQLKAATEKFAHMSDDITRIVVTHHPFEGRDLESDDGIVGRADLAMHAFSRSGVDIILSGHQHLHRAGSSARRYLIDGYAALLIQAGTAVSSRLRRAANSFNIIRIEHPRISVECRAWQPSQSGFETSASYSFRQGPGGWKPT”, the protein production result is reported as “failed”.
